Assay results published in the domain aggregation screens of Martell et al. (2025).

Assay: soluble fraction after stress (log2 fold change); higher = more stays soluble; pooled small domains, quantitative proteomics
Conditions: stress: 50 degC
Method in brief: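 Custom libraries of small protein domains were pooled and measured in a high-throughput format, with quantitative proteomics as the read-out. Each library was stressed at 50°C. The value is the log2 fold change in the amount of each protein that stays soluble after stress, used as a measure of aggregation propensity; higher values mean more of the protein stays soluble.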
With “HMAGTRRFELVEGSSSKFWEVTVADGSYTVTYGRIGTAGGSKTTESATAEADAEKLVREKLKKGYQEAGAA” the “soluble fraction (log2)” value was 0.245. With “HMAGTRVWSENGQLYVTAAVSGRANVYNVLGKLNRSLTFSAGETKSVSVPAGIYVVSLNNGKAYKVAV” the “soluble fraction (log2)” value was -1.67. For “HMAGWIPVEERLPDDLTNPITRDAYVYPVTVDLGDVTDIRYYSFWRGHWYNQGPETMDDLVIAWMLLPEPY”, the “soluble fraction (log2)” value was -0.0981. With “HMAHESYVKEQLLLSLTNHEDPIMQISLIEQLTKMHERNIIHELEKLTVDVQTNEEVKVQAYASLLILS” the “soluble fraction (log2)” value was -0.53. With “HMAHKYYSIMRPVSIGTFPDNGTILGIVNFDTRQMVESIGKMAWGYINYGKPLTEKQISDYELVAE” the “soluble fraction (log2)” value was -0.451. In the case of “HMAHLNYQTVDINALIRHSLQLVSQDAQSRGIALQFTPRPELTTISADPDRLNQVLLNLYLNAMQD”, the “soluble fraction (log2)” value is reported as -0.334. For “HMAHLSPNDAARLVGVSRPLLNQILDEGRITFFETAGGHRKIKLAAVLAYIKERDEVAAQLAAART”, the “soluble fraction (log2)” value was -0.746. For “HMAHSDEAWSVARRVARELDKILDGAGPRRTALVRAAAELRLSTRQIYNLLARYRADRTVTSLLPRR”, the “soluble fraction (log2)” value was -0.316. For “HMAHSWEAIRVKLQQIIDEEDKTKPLNDDQIKEKLAEAGIPNLARRTVAKYRKLLNIPTARFRKR”, the “soluble fraction (log2)” value was -0.313. With “HMAIDINKIYSEIKKKIPNQDNHIKEILSIIWRDFNNYQNIKSRSILINGEKSSPKKEIFNIIEDNINIPV” the “soluble fraction (log2)” value was 0.0154. With “HMAIDPLLDKGYEQYDKGEFTEAVKSFNRAIEIDPKNAEAHFLRAMTYQGLALSKLAVADLEKAIV” the “soluble fraction (log2)” value was 0.136. For “HMAIGDYYINASALNVRSGEGTNYRIIGALPQGQKVQVISENSGWSKINYNGQTGYIGTRYLSKTPV”, the “soluble fraction (log2)” value was -0.00322. In the case of “HMAIHTSVTEHGEHDLTVRMEMEQVFAIEMAVVSHEQATMLERTFKANAEAIYQKLLGVMTQEYP”, the “soluble fraction (log2)” value is reported as -2.33. For “HMAISEEEATNLALERVPGASAQDLRIQLEFDDGVQKYEGDIIYDGKEYDFEIDANTGTFLEWSE”, the “soluble fraction (log2)” value was -0.151. In the case of “HMAISSADRIVAELRTWISGASPGTQLPSSRTLAARYGASPVTVQKALHTLAGMGLVEARPGAGTFVRRQS”, the “soluble fraction (log2)” value is reported as -0.189. In the case of “HMAITVPEGATLSDAAVLLKQAGAVRSADAFLTRAKVFGGSTPIKAGEFVIPVQASNKDILAILQGGK”, the “soluble fraction (log2)” value is reported as 0.021. In the case of “HMAKIATTVYEQIRTAILNGELSNSERLVEEDLAVSMGISRTPVREALRRLAAEGLVDVSPNRGARVAE”, the “soluble fraction (log2)” value is reported as -0.293. In the case of “HMAKINFTSDAIDIGMVTRNDIEMLSFYQNVLGLTKDMEIPFPGLGVVNKLSFGSGFIKILVL”, the “soluble fraction (log2)” value is reported as -0.0122. In the case of “HMAKLGITQREQEVLQLLVTGKTYKEIAAELFISLPTVKTHVSNIYSKAKVRNRLELSNLINYI”, the “soluble fraction (log2)” value is reported as -2.73. With “HMAKNYYEILGLKSDATLPEIKKAFKKLSKKFHPDKNRDDDGYFESMFKSINEAYQVLIDEDKRATFDSHH” the “soluble fraction (log2)” value was -0.59. In the case of “HMAKPAALLFEHRFDGMAEMRFRENIVKNDDGSYTYDEYFLSMLDRAGLEKIVQENMEVWIAYAKQ”, the “soluble fraction (log2)” value is reported as -2.17. With “HMAKPVKSPLPGSVIKVAVKVGQQIKRGDLLLTLESMKMENSILAEKDGVVKNIHVQAGQSVMQDDLLLDI” the “soluble fraction (log2)” value was 0.0752. For “HMAKPVNISAEPYHYDPTRFRVTFELPRLSDQPRKRIRKVAPAGLDREQALAWAKRLEREVLHELLR”, the “soluble fraction (log2)” value was -0.494. In the case of “HMAKVSVNIILKDGVDQTTFVNDVTSNTEVDLKNQLISLPQMVVLSVEEDYINTLKSHSSISILELDE”, the “soluble fraction (log2)” value is reported as -0.00499. In the case of “HMALALDDLFDRYEQLQDQSLGDKTEEGQELRAMIRAYIEQEGLSVRVTRSTTNRELLELIEQEMEG”, the “soluble fraction (log2)” value is reported as -0.174. With “HMALENTDLYAHLRLSHTASVPEIQAALSARVKHMPLQTWLLARKWLLHPRLRERYDGMWSVRFGA” the “soluble fraction (log2)” value was -2.62. For “HMALGRTGEVYLPIPAGRAGHGKISITLQGALREVDAVTAGEALPRGTSVRVVDVAGNGVLLVEK”, the “soluble fraction (log2)” value was -0.059. For “HMALHDTLSYEEYLDLGLNGKADSAEKRELVAHALHLGRPNAKTLYKRLNMLQLNRKDVAALLEQ”, the “soluble fraction (log2)” value was 0.0249. For “HMALHLPTTTINGRQYYYFKSKEKITVYGLSKRLGLTRQEIVEHNPSAVDGIKRGSTLYFPVDEFAD”, the “soluble fraction (log2)” value was -2.09. For “HMALLKRQDEILMYLYTQNKWITGNELAQLFHVSLRTIRNDISFINTEKSNSVLSNRNKGYHIAKDFVYNE”, the “soluble fraction (log2)” value was -0.924. With “HMALPDSEKRQWLVDEVNERGLKLPDDVLEYLFARVGRSQAHLVDVIEKLDFESLAQSRKLTIPFVREVLK” the “soluble fraction (log2)” value was -0.152. In the case of “HMALPRYFFRTRENGAVLFKTPVNNHQNRLEMHQIAAINIRNETVKPLGDTVLTDEETELIADWMRERKTV”, the “soluble fraction (log2)” value is reported as -0.72. In the case of “HMALSVRNRMSDLLRMLGDGEFHRFENLFSLEEGRHGIVVTFLAMLELAKEQLVEISQGESLAPIYLKSLA”, the “soluble fraction (log2)” value is reported as -0.716. For “HMAMDVKEVLLPGVGLRYEFDNSDGDRIGVIAKRSGDFEVVRYTAADRDAAQPMFRLTDEEADALAQILGA”, the “soluble fraction (log2)” value was 0.0786. In the case of “HMAMDYYAIGQRIRKFRKAHDWSQEELAEKVEISTTHMSHIETGSTKLSLPVLVSLANVLDVRTDDLLF”, the “soluble fraction (log2)” value is reported as -3.88. With “HMAMKFQDIVRQKRKELGLTQEQAARRLGVSPAAVSKWESGQSLPDTPLFAPLARLLHTDLNTLLSFE” the “soluble fraction (log2)” value was -0.732. For “HMAMTQNVDLAGRIVFNEKKEEVFNFGKHKGRSVAEVFEKEPSYYDWMLKGDFPAETKQVLTALRLRGLS”, the “soluble fraction (log2)” value was -0.0725. With “HMAMTRTEYLNQLKHYLKRLPHTDYEEAMDYFKEYFEEAGPENEAQVIQDLGNPKEAAYEILSQLL” the “soluble fraction (log2)” value was -0.253. In the case of “HMANDNFPLKLGSKGPRVLQLKTMLIQSLSNDALPKGRSSDAFDSELEALLSRNNLPTVIDETNFRVLTK”, the “soluble fraction (log2)” value is reported as 0.386. In the case of “HMANFGSILRNLRISRDITQSELAAKLGVSRSTVGMYETGAREPDFEAMEAIADTFNVDMDYLVGRSQ”, the “soluble fraction (log2)” value is reported as -0.28. For “HMANLAQITKTNAVALALKDVGAYNSEDLMKFIDLDKVVLGEDGKPQLEDTINSLKESSPYLFQ”, the “soluble fraction (log2)” value was 0.0767. In the case of “HMANMTAKQINMFGDKLSRDKDFQSYYIAKSGDSREQYAQDIKGKLLDPFYVNAWMPYLEKIGFVPS”, the “soluble fraction (log2)” value is reported as 0.00797. For “HMANPEFAGYINGKPYFGPTHQHRGVKMLGATHTRNPHPLVWDSIAESLANYDSRFRWSGGQIL”, the “soluble fraction (log2)” value was -0.429. For “HMANTAKVNVDTANLRETADENSKILKQLSLNDNLEVVEETGDWYKVKNSNVTGYVRKDLVTVEN”, the “soluble fraction (log2)” value was 0.371. With “HMANTLDPMDLKQIISLHLDGFSNRKIGATLGISRNTVNTYMRLFSVSDYALKELLTLDNATLDKLFPS” the “soluble fraction (log2)” value was -2.01. For “HMANYYEILGVKHDATEAEIKAAYKQAAKSAHPDAGGSNEKMQEVNAAWEVLGNAQKRAEYDARMA”, the “soluble fraction (log2)” value was 0.0756. For “HMAPAGGITRQDLFAWGLMGGEGSREKRQQLKKSLGLPSHLGTSGFLDALNLIATRDQVEALLHK”, the “soluble fraction (log2)” value was -0.15. For “HMAPAILTVQVKPDKIREIIGPGGKMIRMIQSETNTRVEVDDSGLVKIAAVSKEEGEAALKMVSDITME”, the “soluble fraction (log2)” value was 0.134. For “HMAPDAPDGFVHRWIRAEMLGQEDKSNVHRRMQEGYELVRADEYPDSDLPVAEGRYAGIIGVGGLLLARF”, the “soluble fraction (log2)” value was -0.14. In the case of “HMAPDDTAVWSAFIGWFRTAPDGPNPLGAYAAKLGEEGLDAAEVGRRMTVIVRLFAEKPEGAEVFYDRTYA”, the “soluble fraction (log2)” value is reported as -0.875. With “HMAPDYYALLGVPRNATTAEVRKAFRGKALEQHPDRGGDEESFRLLSKAYDVLSDSERRKYYDRTG” the “soluble fraction (log2)” value was 0.0767. With “HMAPEKLVHELVGLSLRAGNLDLLAATLSAHKTVLSKESTAEYVKAGLAIEPNHLPLRVLAEQDLGWS” the “soluble fraction (log2)” value was -0.57. With “HMAPFVIQQGQDVRLISKGPGFAVSNDGKALTNAAEGQLARARTANGQTVSGIARQGGIIEIA” the “soluble fraction (log2)” value was 0.00455. For “HMAPGIGDSKYFSHIYEMKHIDTIIDNDKGDRLIEHFEIQDTPFIFTKHWTSAFGFSKRQQEIITDYLSYF”, the “soluble fraction (log2)” value was 0.0839. In the case of “HMAPGVHVEALLPYTAGSLVSQIREYGNVDAVEYRDTGILLQADVDERLAAQIMDQALEDPV”, the “soluble fraction (log2)” value is reported as 0.0408. In the case of “HMAPLADQIVDLLKEHDGFLPLHDNSSPEDIRATVGTSKKAFKQAIGGLFREKRIVIGPTGIRLIS”, the “soluble fraction (log2)” value is reported as -0.378. With “HMAPLATIHVSSLSQKPFYLYGTFEDRRGNHLFFLEQIMGENKSIPVAMPSSAINPKIHASLTPPKG” the “soluble fraction (log2)” value was -0.32. For “HMAPLQDENGDLTFSYNGKTYTVNVNSEEDRNSFAEDFNKENGKKFSWFKERAGLQHYVFYDTEM”, the “soluble fraction (log2)” value was -0.19. In the case of “HMAPLVTLEADGNGAVKLSNLAGHSIREVAGALGGAGLSLIPVGSGTSWKQNPAPGTVLHSGDTVTVYF”, the “soluble fraction (log2)” value is reported as 0.126. With “HMAPPIQQQVESLMNSFAKIGVTVPMLESRLQHAMSAVTANELVMLRKIGASIRDGFATVAEQFPA” the “soluble fraction (log2)” value was 0.0539. In the case of “HMAPPPPEGYIHRWIRESVMGFDDKKNLSARIREGFELVRAEEYPDYEAPTVMDGKHAGVIANGGLLLARF”, the “soluble fraction (log2)” value is reported as -0.148. With “HMAPQQARAAKTRVKLLDAAATVVRRDGIQAMTLARVAEEAGVSKGGLLHHFGSKEELVTGMLEQ” the “soluble fraction (log2)” value was -0.152. With “HMAPRASDALTERELDVLRVVADGASVAEAAEMLVVSRETVKKHLGNIYAKLGVHSKMQAVALLREEGV” the “soluble fraction (log2)” value was -0.147. With “HMAPRKNIRLLRAAQDKAAAEGDHETVDAIRGQIAALIETLPVQYREEYLLQEKGRENGLKLAIENAAK” the “soluble fraction (log2)” value was 0.423. In the case of “HMAPSLQISLKQAIITAQQQHPGSKALNADFDGARGTPRYVIETLLPTGELRELTIDAQSGQVMEDHPDR”, the “soluble fraction (log2)” value is reported as 0.119. In the case of “HMAPSPEGAAILRESVESVARDQVDRVALTMTARGYTTAEIAAALMVDRSTISRRLYAMRDRYHAQQDNAQ”, the “soluble fraction (log2)” value is reported as -0.37. With “HMAPSVNEVAWAQKIIDAHAEAAAAGKGLVVVDGKLIENLHVEEAKQLLSLSDAIAKNDASNG” the “soluble fraction (log2)” value was 0.16. In the case of “HMAPTGTDRQTPHTRDELYLVLSGTGTFVNGDARHPFGPGDALFVPAGAEHRFEDFSDDFRTWVVFYGAEG”, the “soluble fraction (log2)” value is reported as -0.162.
